Results reported in patent US20180305702A1.

Tests used:
[1] = molecular target: cell surface MHC class I K^b molecules presenting the OVA257-264 SIINFEKL peptide (murine); experiment: flow cytometry, K^b-SIINFEKL positive population of DC2.4 cells infected with Lm expressing PSA-Survivin-SIINFEKL
[2] = molecular target: cell surface MHC class I K^b molecules presenting the OVA257-264 SIINFEKL peptide (murine); experiment: flow cytometry, K^b-SIINFEKL positive population of DC2.4 cells infected with Lm expressing PSA-PSMA-SIINFEKL
[3] = molecular target: H-2K^b on DC2.4 cells not presenting SIINFEKL (cells infected with a non-SIINFEKL-expressing Lm strain; K^b-SIINFEKL negative populations) (murine); experiment: flow cytometry, DC2.4 cells infected with a non-SIINFEKL-expressing Lm strain at MOI 20
[4] = molecular target: H-2K^b on DC2.4 cells not presenting SIINFEKL (cells infected with a non-SIINFEKL-expressing Lm strain; K^b-SIINFEKL negative populations) (murine); experiment: flow cytometry, K^b-SIINFEKL negative populations of infected DC2.4 cells
[5] = molecular target: cell surface MHC class I K^b molecules presenting the OVA257-264 SIINFEKL peptide (murine); experiment: flow cytometry, DC2.4 cells infected with ADXS31-2142 at MOI 20, stained five hours post-infection
[6] = molecular target: cell surface MHC class I K^b molecules presenting the OVA257-264 SIINFEKL peptide (murine); experiment: flow cytometry, K^b-SIINFEKL positive population of DC2.4 cells infected with the SIINFEKL minigene Lm (positive control)

Mean fluorescence intensity (MFI) [2]: 2040 MFI | percentage of Alexa647+ DC2.4 cells [3]: 0.37% | Mean fluorescence intensity (MFI) [4]: 300 MFI | percentage of Alexa647+ DC2.4 cells [5]: 14.6% | Mean fluorescence intensity (MFI) [6]: 14900 MFI
Substance: Alexa Fluor 647 conjugated 25D-1.16 antibody
Mean fluorescence intensity (MFI) [1]: 4780 MFI
